Data taken from patent publication US20230406921A1.

Key:
[1] = biological target: CD47 on the surface of tumor cells (human) (UniProt Q08722); experiment: FACS, SKOV-3 tumor cells, control antibody, 100 nM
[2] = biological target: CD47 on the surface of human red blood cells (human) (UniProt Q08722); experiment: FACS, human red blood cells, control antibody, 1000 nM

Binding to tumor cells (MFI) [1]: 4640 MFI | Binding to human red blood cells (MFI) [2]: 797 MFI
Substance: human IgG4 (antibody)
